Earlier results on one molecule are cited in paper PMC9157009, “Protein proximity networks and functional evaluation of the casein kinase 1 gamma family reveal unique roles for CK1γ3 in WNT signaling” (The Journal of Biological Chemistry, 2022).

The subject of the data set is β-catenin-dependent transcription. The note with it: siRNA screen, BAR firefly luciferase reporter, ref Biechele et al.

B1: MAGI1 (protein, UniProt Q96QZ7 1-1491, looked up)
Membrane-associated guanylate …: MSKVIQKKNHWTSRVHECTVKRGPQGELGVTVLGGAEHGEFPYVGAVAAVEAAGLPGGGEGPRLGEGELLLEVQGVRVSGLPRYDVLGVIDSCKEAVTFKAVRQGGRLNKDLRHFLNQRFQKGSPDHELQQTIRDNLYRHAVPCTTRSPREGEVPGVDYNFLTVKEFLDLEQSGTLLEVGTYEGNYYGTPKPPSQPVSGKVITTDALHSLQSGSKQSTPKRTKSYNDMQNAGIVHAENEEEDDVPEMNSSFTADSGEQEEHTLQETALPPVNSSIIAAPITDPSQKFPQYLPLSAEDNLGPLPENWEMAYTENGEVYFIDHNTKTTSWLDPRCLNKQQKPLEECEDDEGVHTEELDSELELPAGWEKIEDPVYGIYYVDHINRKTQYENPVLEAKRKKQLEQQQQQQQQQQQQQQQQQQQQTEEWTEDHSALVPPVIPNHPPSNPEPAREVPLQGKPFFTRNPSELKGKFIHTKLRKSSRGFGFTVVGGDEPDEFLQIKSLVLDGPAALDGKMETGDVIVSVNDTCVLGHTHAQVVKIFQSIPIGASVDLELCRGYPLPFDPDDPNTSLVTSVAILDKEPIIVNGQETYDSPASHSSKTGKVNGMKDARPSSPADVASNSSHGYPNDTVSLASSIATQPELITVHIVKGPMGFGFTIADSPGGGGQRVKQIVDSPRCRGLKEGDLIVEVNKKNVQALTHNQVVDMLVECPKGSEVTLLVQRGGLPVPKKSPKSQPLERKDSQNSSQHSVSSHRSLHTASPSHSTQVLPEFPPAEAQAPDQTDSSGQKKPDPFKIWAQSRSMYENRPMSPSPASGLSKGEREREINSTNFGECPIPDYQEQDIFLWRKETGFGFRILGGNEPGEPIYIGHIVPLGAADTDGRLRSGDELICVDGTPVIGKSHQLVVQLMQQAAKQGHVNLTVRRKVVFAVPKTENEVPSPASSHHSSNQPASLTEEKRTPQGSQNSLNTVSSGSGSTSGIGSGGGGGSGVVSTVVQPYDVEIRRGENEGFGFVIVSSVSRPEAGTTFAGNACVAMPHKIGRIIEGSPADRCGKLKVGDRILAVNGCSITNKSHSDIVNLIKEAGNTVTLRIIPGDESSNATLLTNAEKIATITTTHTPSQQGTQETRNTTKPKQESQFEFKAPQATQEQDFYTVELERGAKGFGFSLRGGREYNMDLYVLRLAEDGPAERCGKMRIGDEILEINGETTKNMKHSRAIELIKNGGRRVRLFLKRGDGSVPEYDPSSDRHGPATGPQGVPEVRAGPDRRQHPSLESSYPPDLHKSSPHGEKRAHARDPKGSREYSRQPNEHHTWNGTSRKPDSGACRPKDRAPEGRRDAQAERAAAANGPKRRSPEKRREGTRSADNTLERREKHEKRRDVSPERRRERSPTRRRDGSPSRRRRSLERLLEQRRSPERRRGGSPERRAKSTDRRRARSPERRRERSLDKRNREDRASHREREEANLKQDAGRSSRHPPEQRRRPYKECSTDLSI
Consider B1, for which the “Fold over control siRNA” value (fold over control siRNA) was 3.957. Moreover, the “Average BAR firefly Luciferase (Raw)” value (raw signal per siRNA target) was 104670.
